Reference: patent US20190202883A1 (Takeda / Millennium, published 2019)
Values belong to the binder of their own block, whether it stands above or below them. Square brackets hold non-standard residues; d marks the D form. Side chains are listed from the residue outwards. Phe(2-F) = N[C@@H](Cc1ccccc1F)C(=O)O; αMeF = C[C@](N)(Cc1ccccc1)C(=O)O; Iva = CC[C@](C)(N)C(=O)O; Oda = not defined here; Aib = CC(C)(N)C(=O)O

Assays:
Test in all cases: cell-based or functional assay
[1] = target: T1, human NPY2R (human, UniProt P49146 1-381)
T1 sequence (looked up): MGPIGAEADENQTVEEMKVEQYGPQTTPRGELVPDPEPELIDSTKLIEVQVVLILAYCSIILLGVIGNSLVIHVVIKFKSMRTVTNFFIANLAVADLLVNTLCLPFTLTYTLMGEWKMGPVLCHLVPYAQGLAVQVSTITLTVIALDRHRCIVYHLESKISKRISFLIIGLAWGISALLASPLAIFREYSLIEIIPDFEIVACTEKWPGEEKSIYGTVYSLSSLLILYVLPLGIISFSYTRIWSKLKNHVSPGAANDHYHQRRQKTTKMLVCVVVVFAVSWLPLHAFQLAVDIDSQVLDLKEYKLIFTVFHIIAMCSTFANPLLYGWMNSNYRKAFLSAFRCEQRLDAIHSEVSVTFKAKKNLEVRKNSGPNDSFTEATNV

[2] = target: human GLP-1R (human, UniProt P43220 24-463)
[3] = target: T2, human GIPR (human, UniProt P48546 22-466)
T2 sequence (looked up): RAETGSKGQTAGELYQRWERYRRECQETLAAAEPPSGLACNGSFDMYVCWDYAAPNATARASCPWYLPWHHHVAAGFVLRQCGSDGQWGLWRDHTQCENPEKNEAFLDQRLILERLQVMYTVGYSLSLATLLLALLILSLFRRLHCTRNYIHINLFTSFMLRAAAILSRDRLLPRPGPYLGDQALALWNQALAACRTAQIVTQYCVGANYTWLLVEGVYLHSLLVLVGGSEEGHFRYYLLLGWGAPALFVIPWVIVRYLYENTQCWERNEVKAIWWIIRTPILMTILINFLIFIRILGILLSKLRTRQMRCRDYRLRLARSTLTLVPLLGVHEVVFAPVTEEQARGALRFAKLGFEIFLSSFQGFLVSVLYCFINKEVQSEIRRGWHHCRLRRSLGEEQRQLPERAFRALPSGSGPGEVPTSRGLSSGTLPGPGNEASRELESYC

Agonist activity (EC50), Cre-luc reporter assay [1]: 3.2 nM
Agonist activity (EC50), Cre-luc reporter assay [2]: 4.4 nM
Agonist activity (EC50), Cre-luc reporter assay [3]: 0.17 nM
B1: Me-Tyr-Aib-Glu-Gly-Thr-αMePhe-Thr-Ser-Asp-Lys(-Gly-Gly-Gly-Gly-Oda)-Ala-Ile-Aib-Leu-Asp-Lys-Gln-Arg-Gln-Iva-Glu-Phe-Val-Arg-His-Leu-Leu-Asn-Lys-Aib-Thr-Arg-Gln- … (peptide)
peptide: Me-Y[Aib]EGT[αMeF]TSDK([Gly-Gly-Gly-Gly-Oda])AI[Aib]LDKQRQ[Iva]EFVRHLLNK[Aib]TRQRY-NH2
modifications: reading uncertain; also: printed as Me-Tyr-Aib-Glu-Gly-Thr-αMePhe-Thr-Ser-Asp-Lys(-Gly-Gly-Gly-Gly-Oda)-Ala-Ile-Aib-Leu-Asp-Lys-Gln-Arg-Gln-Iva-Glu-Phe-Val-Arg-His-Leu-Leu-Asn-Lys-Aib-Thr-Arg-Gln-Arg-Tyr-NH2

Agonist activity (EC50), Cre-luc reporter assay [1]: 0.02 nM
Agonist activity (EC50), Cre-luc reporter assay [2]: 0.073 nM
Agonist activity (EC50), Cre-luc reporter assay [3]: 0.048 nM
Binder: Me-Y[Aib]EGT[αMeF]TSDK([Gly-Gly-Gly-Gly-Pal])SK[Aib]LDKQRQ[Iva]EFVRHLLNK[Aib]TRQRY-NH2

Agonist activity (EC50), Cre-luc reporter assay [1]: 0.048 nM
Agonist activity (EC50), Cre-luc reporter assay [2]: 0.05 nM
Agonist activity (EC50), Cre-luc reporter assay [3]: 0.056 nM
Binder: H-Y[Aib]EGT[αMeF]TSDK([Gly-Gly-Gly-Gly-Pal])SI[Aib]LDKQRQ[Iva]EFVRHLLNK[Aib]TRQRY-NH2

Agonist activity (EC50), Cre-luc reporter assay [1]: 0.081 nM
Agonist activity (EC50), Cre-luc reporter assay [2]: 0.049 nM
Agonist activity (EC50), Cre-luc reporter assay [3]: 0.05 nM
Binder: Me-Y[Aib]EGT[αMeF]TSDK([Gly-Gly-Gly-Gly-Pal])SI[Aib]LDKQRQ[Iva]EFVRHLLNK[Aib]TRQRY-NH2

Agonist activity (EC50), Cre-luc reporter assay [1]: 0.22 nM
Agonist activity (EC50), Cre-luc reporter assay [2]: 0.38 nM
Agonist activity (EC50), Cre-luc reporter assay [3]: 0.35 nM
Binder: H-Y[Aib]EGT[αMeF]TSDK([Gly-Gly-Gly-Gly-Pal])[Aib]I[Aib]LDKQRQ[Iva]EFVRHLLNK[Aib]TRQR[Phe(2-F)]-NH2

Agonist activity (EC50), Cre-luc reporter assay [1]: 1.5 nM
Agonist activity (EC50), Cre-luc reporter assay [2]: 0.94 nM
Agonist activity (EC50), Cre-luc reporter assay [3]: 1 nM
B2: H-Tyr-Aib-Glu-Gly-Thr-αMePhe-Thr-Ser-Asp-Lys(-Gly-Gly-Gly-Gly-Oda)-Aib-Lys-Aib-Leu-Asp-Lys-Gln-Arg-Gln-Iva-Glu-Phe-Val-Arg-His-Leu-Leu-Asn-Lys-Aib-Thr-Arg-Gln-A … (peptide)
peptide: H-Y[Aib]EGT[αMeF]TSDK([Gly-Gly-Gly-Gly-Oda])[Aib]K[Aib]LDKQRQ[Iva]EFVRHLLNK[Aib]TRQRY-NH2
modifications: reading uncertain; also: printed as H-Tyr-Aib-Glu-Gly-Thr-αMePhe-Thr-Ser-Asp-Lys(-Gly-Gly-Gly-Gly-Oda)-Aib-Lys-Aib-Leu-Asp-Lys-Gln-Arg-Gln-Iva-Glu-Phe-Val-Arg-His-Leu-Leu-Asn-Lys-Aib-Thr-Arg-Gln-Arg-Tyr-NH2

Agonist activity (EC50), Cre-luc reporter assay [1]: 0.099 nM
Agonist activity (EC50), Cre-luc reporter assay [2]: 0.079 nM
Agonist activity (EC50), Cre-luc reporter assay [3]: 0.066 nM
Binder: H-Y[Aib]EGT[αMeF]TSDK([Gly-Gly-Gly-Gly-Pal])AI[Aib]LDKQRQ[Iva]EFVRHLLNK[Aib]TRQRY-NH2

Agonist activity (EC50), Cre-luc reporter assay [1]: 1.2 nM
Agonist activity (EC50), Cre-luc reporter assay [2]: 4.5 nM
Agonist activity (EC50), Cre-luc reporter assay [3]: 0.38 nM
B3: Me-Tyr-Aib-Glu-Gly-Thr-αMePhe-Thr-Ser-Asp-Lys(-Gly-Gly-Gly-Gly-Oda)-Ser-Lys-Aib-Leu-Asp-Lys-Gln-Arg-Gln-Iva-Glu-Phe-Val-Arg-His-Leu-Leu-Asn-Lys-Aib-Thr-Arg-Gln- … (peptide)
peptide: Me-Y[Aib]EGT[αMeF]TSDK([Gly-Gly-Gly-Gly-Oda])SK[Aib]LDKQRQ[Iva]EFVRHLLNK[Aib]TRQRY-NH2
modifications: reading uncertain; also: printed as Me-Tyr-Aib-Glu-Gly-Thr-αMePhe-Thr-Ser-Asp-Lys(-Gly-Gly-Gly-Gly-Oda)-Ser-Lys-Aib-Leu-Asp-Lys-Gln-Arg-Gln-Iva-Glu-Phe-Val-Arg-His-Leu-Leu-Asn-Lys-Aib-Thr-Arg-Gln-Arg-Tyr-NH2

Agonist activity (EC50), Cre-luc reporter assay [1]: 0.068 nM
Agonist activity (EC50), Cre-luc reporter assay [2]: 0.069 nM
Agonist activity (EC50), Cre-luc reporter assay [3]: 0.051 nM
Binder: Me-Y[Aib]EGT[αMeF]TSDK([Gly-Gly-Gly-Gly-Pal])[Aib]K[Aib]LDKQRQ[Iva]EFVRHLLNK[Aib]TRQRY-NH2
